The values below come from the supplement of paper PMC10567573.

B1: RHOBTB1 (parent)
chain: TFGDHHKDRRFAYGRSDVVVLCFS
B2: ANKRD17 (parent)
chain: EVLRRLTSSVSCALDEAAAALTRM
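Also: lentivirally expressed fusions sorted by FACS into six bins by GFP to DsRed ratio, PSI derived from sequencing read proportions per bin multiplied by bin number.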

Variants of B1 are the subject of one series. The experiment in a line: protein stability index of a GFP-peptide fusion (GPS, HEK-293T) (PSI 1-6); higher = more stable. The following applies: c terminus: a fixed tail appended.
For the variant TFGDHHKDRRFAYGRSDVVVLCFV [S24V], the protein stability index is 2.3.
Take TFGDHHKDRRFAYGRSDVVVLCFY [S24Y]: the protein stability index came to 4.57.
The same measure, in the same setting: next, TFGDHHKDRRFAYGRSDVVVLCFF [S24F]: 2.84; TFGDHHKDRRFAYGRSDVVVLCFP [S24P]: 1.48.
Same read-out and setting: next, TFGDHHKDRRFAYGRSDVVVLCFC [S24C]: 3.85; TFGDHHKDRRFAYGRSDVVVLCFG [S24G]: 2.54; TFGDHHKDRRFAYGRSDVVVLCFN [S24N]: 1.65.
Turning to TFGDHHKDRRFAYGRSDVVVLCFR [S24R], the protein stability index was 2.95.
Still for that read-out and setting: the figure for TFGDHHKDRRFAYGRSDVVVLCFE [S24E] is 2.05.
Turning to TFGDHHKDRRFAYGRSDVVVLCFD [S24D], the protein stability index was 1.66.
The same measure, in the same setting: next, TFGDHHKDRRFAYGRSDVVVLCFT [S24T]: 2.16.
On the same count and under the same terms, the figure for TFGDHHKDRRFAYGRSDVVVLCFH [S24H] is 2.98.

In a further series the parent is B2. Described as above. The conditions noted are these: c terminus: a fixed tail appended.
On to SVLRRLTSSVSCALDEAAAALTRM [E1S], for which the protein stability index came to 2.2.
On the same count and under the same terms, the figure for YVLRRLTSSVSCALDEAAAALTRM [E1Y] is 2.22.
With IVLRRLTSSVSCALDEAAAALTRM [E1I], the protein stability index was found to be 1.89.
On to CVLRRLTSSVSCALDEAAAALTRM [E1C], for which the protein stability index is 1.94.
For the variant LVLRRLTSSVSCALDEAAAALTRM [E1L], the protein stability index was 1.8.
The same measure, in the same setting: next, TVLRRLTSSVSCALDEAAAALTRM [E1T]: 2.08.
Still for that read-out and setting: the figure for AVLRRLTSSVSCALDEAAAALTRM [E1A] is 2.07; for MVLRRLTSSVSCALDEAAAALTRM [E1M] it is 1.38; for VVLRRLTSSVSCALDEAAAALTRM [E1V] it is 2.42.
The same measure, in the same setting: next, PVLRRLTSSVSCALDEAAAALTRM [E1P]: 2.48; FVLRRLTSSVSCALDEAAAALTRM [E1F]: 1.73.
With RVLRRLTSSVSCALDEAAAALTRM [E1R], the protein stability index stood at 3.12.
The same measure, in the same setting: the figure for QVLRRLTSSVSCALDEAAAALTRM [E1Q] is 3.07; for GVLRRLTSSVSCALDEAAAALTRM [E1G] it is 2.73.
Still for that read-out and setting: the figure for DVLRRLTSSVSCALDEAAAALTRM [E1D] is 1.97; for HVLRRLTSSVSCALDEAAAALTRM [E1H] it is 2.67.
The same measure, in the same setting: next, KVLRRLTSSVSCALDEAAAALTRM [E1K]: 2.28.
EVPRRLTSSVSCALDEAAAALTRM [L3P]: the protein stability index is 3.4.
The same measure, in the same setting: next, EVDRRLTSSVSCALDEAAAALTRM [L3D]: 3.35; EVWRRLTSSVSCALDEAAAALTRM [L3W]: 1.4.
On the same count and under the same terms, the figure for EVARRLTSSVSCALDEAAAALTRM [L3A] is 1.83; for EVRRRLTSSVSCALDEAAAALTRM [L3R] it is 2.17.
Still for that read-out and setting: next, EVIRRLTSSVSCALDEAAAALTRM [L3I]: 1.23; EVTRRLTSSVSCALDEAAAALTRM [L3T]: 1.55.
For the variant EVSRRLTSSVSCALDEAAAALTRM [L3S], the protein stability index stood at 2.98.
EVGRRLTSSVSCALDEAAAALTRM [L3G]: the protein stability index came out at 3.68.
Same read-out and setting: next, EVMRRLTSSVSCALDEAAAALTRM [L3M]: 1.41; EVYRRLTSSVSCALDEAAAALTRM [L3Y]: 2.44; EVLQRLTSSVSCALDEAAAALTRM [R4Q]: 1.57.
The same measure, in the same setting: the figure for EVLSRLTSSVSCALDEAAAALTRM [R4S] is 1.05; for EVLFRLTSSVSCALDEAAAALTRM [R4F] it is 1.03; for EVLGRLTSSVSCALDEAAAALTRM [R4G] it is 2.19.
As for EVLYRLTSSVSCALDEAAAALTRM [R4Y], the protein stability index stood at 2.34.
On to EVLTRLTSSVSCALDEAAAALTRM [R4T], for which the protein stability index worked out at 2.1.
The same measure, in the same setting: the figure for EVLIRLTSSVSCALDEAAAALTRM [R4I] is 1.04; for EVLCRLTSSVSCALDEAAAALTRM [R4C] it is 1.74.
Take EVLERLTSSVSCALDEAAAALTRM [R4E]: the protein stability index is 1.42.
The same measure, in the same setting: next, EVLWRLTSSVSCALDEAAAALTRM [R4W]: 1.07; EVLPRLTSSVSCALDEAAAALTRM [R4P]: 2.15; EVLRRLTSSLSCALDEAAAALTRM [V10L]: 2.21.
Still for that read-out and setting: the figure for EVLRRLTSSCSCALDEAAAALTRM [V10C] is 1.98; for EVLRRLTSSNSCALDEAAAALTRM [V10N] it is 1.94; for EVLRRLTSSESCALDEAAAALTRM [V10E] it is 1.81.
Same read-out and setting: the figure for EVLRRLTSSRSCALDEAAAALTRM [V10R] is 1.07; for EVLRRLTSSTSCALDEAAAALTRM [V10T] it is 1.3; for EVLRRLTSSPSCALDEAAAALTRM [V10P] it is 1.29.
Consider EVLRRLTSSWSCALDEAAAALTRM [V10W], for which the protein stability index came out at 1.4.
On the same count and under the same terms, the figure for EVLRRLTSSASCALDEAAAALTRM [V10A] is 3.08; for EVLRRLTSSISCALDEAAAALTRM [V10I] it is 2.13.
In the case of EVLRRLTSSSSCALDEAAAALTRM [V10S], the protein stability index came to 1.83.
On to EVLRRLTSSGSCALDEAAAALTRM [V10G], for which the protein stability index came to 1.1.
As to EVLRRLTSSDSCALDEAAAALTRM [V10D], the protein stability index was 3.61.
With EVLRRLTSSKSCALDEAAAALTRM [V10K], the protein stability index was found to be 2.15.
On the same count and under the same terms, the figure for EVLRRLTSSYSCALDEAAAALTRM [V10Y] is 1.65.
Still for that read-out and setting: next, EVLRRLTSSHSCALDEAAAALTRM [V10H]: 1.74; EVLRRLTYSVSCALDEAAAALTRM [S8Y]: 1.99.
On to EVLRRLTGSVSCALDEAAAALTRM [S8G], for which the protein stability index amounted to 1.52.
On the same count and under the same terms, next, EVLRRLTPSVSCALDEAAAALTRM [S8P]: 1.73; EVLRRLTHSVSCALDEAAAALTRM [S8H]: 2.09; EVLRRLTVSVSCALDEAAAALTRM [S8V]: 2.27.
Same read-out and setting: the figure for EVLRRLTKSVSCALDEAAAALTRM [S8K] is 2.39.
The same measure, in the same setting: next, EVLRRLTMSVSCALDEAAAALTRM [S8M]: 2.13; EVLRRLTQSVSCALDEAAAALTRM [S8Q]: 1.41; EVLRRLTNSVSCALDEAAAALTRM [S8N]: 2.49.
As to EVLRRLTDSVSCALDEAAAALTRM [S8D], the protein stability index worked out at 2.25.
For EVLRRLTWSVSCALDEAAAALTRM [S8W], the protein stability index worked out at 3.21.
Still for that read-out and setting: the figure for EVLRRLTASVSCALDEAAAALTRM [S8A] is 1.68; for EVLRRLTCSVSCALDEAAAALTRM [S8C] it is 2.81.
Same read-out and setting: next, EVLRRLTTSVSCALDEAAAALTRM [S8T]: 3.
On the same count and under the same terms, the figure for EVLRRLTFSVSCALDEAAAALTRM [S8F] is 4.21; for EVLRRLTRSVSCALDEAAAALTRM [S8R] it is 2.21.
Take EDLRRLTSSVSCALDEAAAALTRM [V2D]: the protein stability index came out at 2.77.
ELLRRLTSSVSCALDEAAAALTRM [V2L]: the protein stability index turned out to be 2.35.
Still for that read-out and setting: next, EYLRRLTSSVSCALDEAAAALTRM [V2Y]: 2.08; EILRRLTSSVSCALDEAAAALTRM [V2I]: 2.4.
On the same count and under the same terms, next, EKLRRLTSSVSCALDEAAAALTRM [V2K]: 2.33; ECLRRLTSSVSCALDEAAAALTRM [V2C]: 2.34.
The same measure, in the same setting: next, EWLRRLTSSVSCALDEAAAALTRM [V2W]: 1.69; ESLRRLTSSVSCALDEAAAALTRM [V2S]: 2.59; ETLRRLTSSVSCALDEAAAALTRM [V2T]: 2.79.
For the variant EELRRLTSSVSCALDEAAAALTRM [V2E], the protein stability index turned out to be 2.21.
The same measure, in the same setting: next, EMLRRLTSSVSCALDEAAAALTRM [V2M]: 2.56.
